Data reported in patent US20240279341A1 (Alector, published 2024).

T1: human MerTK overexpressed on CHO cells (human, UniProt Q12866 21-999)
T1 construct: also called CHO-huMerTK OE; CHO-human MerTK OE cells
T1 sequence: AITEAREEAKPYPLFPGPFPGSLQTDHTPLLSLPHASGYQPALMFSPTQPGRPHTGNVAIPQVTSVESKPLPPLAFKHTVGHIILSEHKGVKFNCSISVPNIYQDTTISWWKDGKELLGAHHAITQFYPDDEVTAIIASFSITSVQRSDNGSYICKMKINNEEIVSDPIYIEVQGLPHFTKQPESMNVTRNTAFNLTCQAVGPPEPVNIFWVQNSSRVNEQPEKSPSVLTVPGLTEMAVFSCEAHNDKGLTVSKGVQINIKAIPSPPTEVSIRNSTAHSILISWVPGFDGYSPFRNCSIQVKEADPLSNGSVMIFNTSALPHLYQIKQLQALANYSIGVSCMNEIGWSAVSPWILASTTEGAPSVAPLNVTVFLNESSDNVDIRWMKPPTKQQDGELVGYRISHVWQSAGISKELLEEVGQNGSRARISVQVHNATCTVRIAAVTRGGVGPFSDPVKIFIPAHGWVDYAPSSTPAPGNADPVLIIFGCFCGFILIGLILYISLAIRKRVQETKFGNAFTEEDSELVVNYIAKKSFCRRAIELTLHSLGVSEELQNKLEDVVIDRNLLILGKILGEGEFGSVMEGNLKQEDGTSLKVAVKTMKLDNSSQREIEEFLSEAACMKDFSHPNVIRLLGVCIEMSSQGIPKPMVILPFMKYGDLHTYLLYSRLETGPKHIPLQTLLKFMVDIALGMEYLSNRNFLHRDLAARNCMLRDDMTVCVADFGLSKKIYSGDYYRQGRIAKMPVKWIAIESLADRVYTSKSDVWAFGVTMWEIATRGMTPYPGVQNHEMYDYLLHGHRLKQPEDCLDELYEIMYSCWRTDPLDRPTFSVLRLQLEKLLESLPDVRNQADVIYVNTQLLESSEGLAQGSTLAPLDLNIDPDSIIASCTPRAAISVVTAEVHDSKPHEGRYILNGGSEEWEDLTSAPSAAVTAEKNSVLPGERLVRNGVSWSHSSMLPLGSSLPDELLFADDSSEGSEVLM

T2: human MerTK on M2c-differentiated human macrophages (human, UniProt Q12866 21-999)
T2 construct: Endogenous MerTK of primary human macrophages; also called M2c-huMacrophages
T2 sequence: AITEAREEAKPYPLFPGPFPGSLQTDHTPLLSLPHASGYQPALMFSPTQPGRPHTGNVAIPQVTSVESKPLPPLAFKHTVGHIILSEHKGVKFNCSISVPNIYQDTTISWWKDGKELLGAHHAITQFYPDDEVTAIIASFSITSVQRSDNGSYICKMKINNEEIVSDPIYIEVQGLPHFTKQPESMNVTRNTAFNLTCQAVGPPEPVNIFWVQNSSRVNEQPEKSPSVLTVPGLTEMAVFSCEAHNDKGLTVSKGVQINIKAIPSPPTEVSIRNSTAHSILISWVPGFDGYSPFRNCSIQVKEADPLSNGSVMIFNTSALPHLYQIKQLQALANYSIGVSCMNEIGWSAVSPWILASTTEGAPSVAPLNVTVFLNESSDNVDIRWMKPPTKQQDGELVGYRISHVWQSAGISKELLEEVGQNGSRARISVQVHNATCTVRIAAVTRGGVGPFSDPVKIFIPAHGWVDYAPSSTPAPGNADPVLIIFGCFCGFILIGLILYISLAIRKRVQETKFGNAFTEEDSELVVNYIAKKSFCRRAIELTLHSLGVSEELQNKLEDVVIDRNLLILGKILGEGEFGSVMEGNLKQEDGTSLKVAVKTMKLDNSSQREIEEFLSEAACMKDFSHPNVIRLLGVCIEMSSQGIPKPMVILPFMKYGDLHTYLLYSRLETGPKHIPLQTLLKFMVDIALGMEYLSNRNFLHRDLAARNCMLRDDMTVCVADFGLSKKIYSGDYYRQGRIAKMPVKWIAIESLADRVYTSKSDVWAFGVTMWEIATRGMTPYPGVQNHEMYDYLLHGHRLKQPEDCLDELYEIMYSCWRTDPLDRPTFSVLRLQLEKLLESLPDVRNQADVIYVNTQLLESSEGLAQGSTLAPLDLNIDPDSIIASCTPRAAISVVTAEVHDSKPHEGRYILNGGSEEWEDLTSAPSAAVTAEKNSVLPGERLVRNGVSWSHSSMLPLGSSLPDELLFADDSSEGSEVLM


Experiments:
[1] = target: T3, human PDL1 (human, UniProt Q9NZQ7 19-290); experiment: flow cytometry on CHO-huPDL1 OE cells, Dylight650-conjugated antibody
T3 construct: whole, on cells; Also used as the target for the monovalent anti-PDL1 antibody on M2c-differentiated human macrophages (endogenous PDL1); also called huPDL1; programmed death-ligand 1
Excerpt: (§1) Human macrophages were differentiated from human monocytes for 7 days in the presence of human M-CSF, resulting in M2c-differentiated human macrophages. After 7 days, the differentiated human macrophages were harvested (by scraping), resuspended in PBS, and plated on 96-well plates for use. CHO cells overexpressing human MerTK (CHO-huMerTK OE), CHO cells overexpressing human PDL1 (CHO-huPDL1 OE), and M2c-differentiated human macrophages were stained with Dylight650-conjugated bispecific anti-MerTK:anti-PDL1 antibodies, or bivalent anti-MerTK antibodies for 30 min on ice. A range of antibody concentrations were used in these studies to obtain binding curves. All antibodies tested in these studies were IgG1 having Fc regions comprising LALAPS mutations. Cells were fixed and then acquired on a BD FACS Canto II cytometer. The mean fluorescence intensity (MFI) was calculated using FlowJo software and Kd value was calculated using Prism software.

[2] = target: T1, human MerTK overexpressed on CHO cells; experiment: flow cytometry on CHO-huMerTK OE cells
Excerpt: as §1

[3] = target: T2, human MerTK on M2c-differentiated human …; experiment: flow cytometry on M2c-differentiated human macrophages
Excerpt: as §1

[4] = target: T1, human MerTK overexpressed on CHO cells; experiment: flow cytometry, Dylight650-conjugated antibody on CHO-huMerTK OE cells, MFI
Method: (§2) To determine whether bispecific anti-MerTK:anti-PDL1 antibodies of the present disclosure bind to different cell types, the following experiments were performed. Cells used in these studies included CHO cells overexpressing human MerTK (CHO-human MerTK OE cells), CHO cells overexpressing human PDL1 (CHO-human PDL1 OE cells), and M2c-differentiated human macrophages.
as §1

[5] = target: T3, human PDL1; experiment: flow cytometry, Dylight650-conjugated antibody on CHO-huPDL1 OE cells, MFI
Method: as §2, §1

T3 sequence (Q9NZQ7 19-290): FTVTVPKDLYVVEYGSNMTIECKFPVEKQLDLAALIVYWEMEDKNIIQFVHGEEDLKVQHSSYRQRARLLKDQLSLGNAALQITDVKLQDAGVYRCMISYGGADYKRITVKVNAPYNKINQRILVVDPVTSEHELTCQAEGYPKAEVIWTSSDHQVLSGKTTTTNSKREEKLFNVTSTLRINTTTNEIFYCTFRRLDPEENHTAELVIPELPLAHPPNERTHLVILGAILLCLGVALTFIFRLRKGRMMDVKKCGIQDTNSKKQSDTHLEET

| Binder | binding result [1] | fold higher affinity compared to its monovalent form (monovalent MTK-33.11) [2] | fold higher affinity compared to its monovalent form (monovalent MTK-33.11) [3] | EC50 (read off the curve) [4] | binding result [5] |
| --- | --- | --- | --- | --- | --- |
| monovalent anti-MerTK antibody MTK-33.11 (antibody, V domains shown) VH: QVQLVQSGAEVKKPGASVKVSCKASGYTFTSYWMHWVRQAPGQGLEWIGVIDPSDNYINYNQKFQGRVTMTRDTSTSTVYMELSSLRSEDTAVYYCAREAWTRGYFDYWGQGTLVTVSS VL: DIQMTQSPSSLSASVGDRVTITCQASRSVRNTVAWYQQKPGKAPKLLIYYASNRYTGVPSRFSGSGSGTDFTFTISSLQPEDIATYYCQQDYRSPFTFGQGTKLEIK | no binding | – | – | – | – |
| bivalent anti-MerTK antibody MTK-33.11 (full IgG) (antibody, V domains shown) VH: QVQLVQSGAEVKKPGASVKVSCKASGYTFTSYWMHWVRQAPGQGLEWIGVIDPSDNYINYNQKFQGRVTMTRDTSTSTVYMELSSLRSEDTAVYYCAREAWTRGYFDYWGQGTLVTVSS VL: DIQMTQSPSSLSASVGDRVTITCQASRSVRNTVAWYQQKPGKAPKLLIYYASNRYTGVPSRFSGSGSGTDFTFTISSLQPEDIATYYCQQDYRSPFTFGQGTKLEIKR | – | ~10 fold | ~5 fold | ~4 nM | no binding (tested: about 70 nM) |
| monovalent anti-MerTK antibody MTK-16.2 (antibody, V domains shown) VH: QVQLVQSGSELKKPGASVKVSCKASGYTFTNHGMNWVRQAPGQGLEWMGWINTYTGEPTYADDFKGRFVFSLDTSVSTAYLQISSLKAEDTAVYYCARKGVTAARYFDYWGQGTLVTVSS VL: DIQMTQSPSSLSASVGDRVTITCRASQNVRTAVAWYQQKPGKAPKRLIYLASNRHTGVPSRFSGSGSGTEFTLTISNLQPEDFATYYCLQHWNYPLTFGGGTKLEIK | no binding | – | – | – | – |
| bivalent anti-MerTK antibody MTK-16.2 (full IgG) (antibody, V domains shown) VH: QVQLVQSGSELKKPGASVKVSCKASGYTFTNHGMNWVRQAPGQGLEWMGWINTYTGEPTYADDFKGRFVFSLDTSVSTAYLQISSLKAEDTAVYYCARKGVTAARYFDYWGQGTLVTVSS VL: DIQMTQSPSSLSASVGDRVTITCRASQNVRTAVAWYQQKPGKAPKRLIYLASNRHTGVPSRFSGSGSGTEFTLTISNLQPEDFATYYCLQHWNYPLTFGGGTKLEIKR | – | – | – | – | no binding (tested: about 70 nM) |
